Experimental data: patent US7871610B2, “Antibodies to Tie1 ectodomain” (Dyax Corp., priority 2003, dated 2011)

Key:
Tie1 [1] = molecular target: T1, Tie1 (Homo sapiens, UniProt P35590); test: Tie1 phosphorylation assay in transfected COS1 cells; assay type: cell-based; settings: COS1 cells with V5-tagged full length Tie1, serum starved, E3 IgG 200 ng/ml
Experimental: COS1 cells were transfected with pcDNA3-Tie1-V5. After 24 h of transfection, the cells were serum starved for 8 h and then treated with E3 IgG. For the Tie1 phosphorylation assay, HDMVECs were cultured on 10 cm dishes to near confluence, starved (8-16 h) in serum free medium and stimulated as indicated. After the stimulations, the cells were lysed in lysis buffer (RIPA-DOC: 50 mM Tris-HCl pH 8.0, 150 mM NaCl, 1% Triton-X-100, 0.1% SDS, 0.5% DOC, 10 mM EDTA, supplemented with aprotinin, leupeptin, PMSF and sodium vanadate). Clarified lysates from transfected COS1 cells or HDMVECs were immunoprecipitated with anti-V5 or anti-Tie1 B9, respectively. Proteins were separated by SDS-PAGE, transferred to nitrocellulose and immunoblotted using the anti-phosphotyrosine and anti-Tie1 (R&D systems) antibodies.
To test if the E3 IgG binding to the extracellular region of Tie1 induces autophosphorylation of Tie1, the Tie1 receptor phosphorylation level in response to E3 IgG treatment was studied in transiently transfected COS1 cells and human primary endothelial cells. COS1 cells were transfected with an expression vector containing a V5-tagged full length Tie1 cDNA, and, after serum starvation, the cells were treated with E3 IgG (200 ng/ml). […]

Tie1 [2] = molecular target: T1, Tie1; test: Immunohistochemistry of matched human tumor and normal tissue sections; design: from tissue; host or cells: fresh frozen normal and tumor tissue (e.g. lung, kidney, skin, breast); settings: fresh frozen tissue
Experimental: The Tie-1 antibodies were biotinylated using the EZ-link Sulfo-NHS-SS-Biotin (Pierce, Cat. 21331). For Tie-1/Fc and Tie-1-His, the reaction was performed for 2 hours on ice in 50 mM sodium carbonate buffer, pH 9.6, in the presence of a 5-fold molar excess of biotinylating agent. For the antibodies, the reaction was performed for 2 hours on ice in PBS, in the presence of a 15-fold molar excess of EZ-link Sulfo-NHS-SS-Biotin. The reaction was stopped by the addition of Tris-HCl, pH 7.5 (50 mM final concentration) followed by a 1-hour incubation on ice. Samples were then dialyzed against PBS.
Various normal and tumor tissue sections were stained with biotinylated antibodies. A mouse monoclonal anti-Tie1 antibody (7e8) (Alitalo laboratory, University of Helsinki) was used as a positive control. Sections without primary antibody served as negative control. All samples were fresh frozen tissues and staining was performed with the TSA-kit (Perkin-Elmer Life Sciences). After acetone fixation (10-20 min, −20° C.) the slides were treated with 0.73% H2O2 for 10 min to reduce endogenous peroxidase activity followed by blocking for 30 min with TNB buffer. Sections ([…] thick) were incubated with primary antibodies (10 μg/ml) overnight at 4° C. Sections with the mouse monoclonal anti-tie1 antibody (7e8) were treated with biotinylated anti-mouse antibodies (VectaStain) before the addition of streptavidin-HRP. Signal was amplified by using a TSA kit and the visualized by AEC (235 ml NaAc, 15 ml AEC (stock solution: 1600 mg 3-amino-9-ethyl-carbazole and 480 ml N-dimethylformamide), 250 μl H2O2).

Tie-1 = test: Immunohistochemistry of mouse SW480 xenograft tumor sections; settings: biotinylated E3 IgG1 10 μg/ml, paraffin sections
Experimental: We determined if antibody E3 binds to mouse endothelial cells in mouse xenographs. Immunohistochemistry was performed with biotinylated E3 IgG1 (a,z allotype) antibody and control antibodies anti-CD31 (endothelial cell specific marker) and anti-PCNA (proliferating cell nuclear antigen). Formalin-fixed tumor tissues from a mouse-xenograph containing SW480 cells (ATCC) were tested for the binding pattern of the human anti-Tie1 antibody E3. 5 μm sections of paraffin embedded tissues were deparaffinized, rehydrated and pretreated with warm the citrate buffer (0.01 M sodium citrate, pH6 at 95° C.) for 45 min. The slides were cooled down in fresh citrate buffer for 20 min and rinsed with distilled water. The slides were hydrogen peroxide treated, (0.3% H2O2 in PBS), and preincubated with PBS, 5% FCS, 5% heat inactivated human serum (HS) for 1 hour. Between antibody incubations slides were washed 3 times 5 minutes in PBS. Biotinylated antibodies E3 and A2-SV were diluted to a concentration of 10 μg/ml in PBS, 10% HS and incubated for 1 hour at RT. Slides were then incubated with an avidin-HRP (Dako) for 30 minutes at room temperature. Staining was detected by AEC (Vector Laboratories, Burlingame) and H2O2. The peroxidase reaction was stopped with water and slides were counter-stained with haematoxylin. The tissues were evaluated for their binding reactivity.

T1 sequence (P35590 22-1138): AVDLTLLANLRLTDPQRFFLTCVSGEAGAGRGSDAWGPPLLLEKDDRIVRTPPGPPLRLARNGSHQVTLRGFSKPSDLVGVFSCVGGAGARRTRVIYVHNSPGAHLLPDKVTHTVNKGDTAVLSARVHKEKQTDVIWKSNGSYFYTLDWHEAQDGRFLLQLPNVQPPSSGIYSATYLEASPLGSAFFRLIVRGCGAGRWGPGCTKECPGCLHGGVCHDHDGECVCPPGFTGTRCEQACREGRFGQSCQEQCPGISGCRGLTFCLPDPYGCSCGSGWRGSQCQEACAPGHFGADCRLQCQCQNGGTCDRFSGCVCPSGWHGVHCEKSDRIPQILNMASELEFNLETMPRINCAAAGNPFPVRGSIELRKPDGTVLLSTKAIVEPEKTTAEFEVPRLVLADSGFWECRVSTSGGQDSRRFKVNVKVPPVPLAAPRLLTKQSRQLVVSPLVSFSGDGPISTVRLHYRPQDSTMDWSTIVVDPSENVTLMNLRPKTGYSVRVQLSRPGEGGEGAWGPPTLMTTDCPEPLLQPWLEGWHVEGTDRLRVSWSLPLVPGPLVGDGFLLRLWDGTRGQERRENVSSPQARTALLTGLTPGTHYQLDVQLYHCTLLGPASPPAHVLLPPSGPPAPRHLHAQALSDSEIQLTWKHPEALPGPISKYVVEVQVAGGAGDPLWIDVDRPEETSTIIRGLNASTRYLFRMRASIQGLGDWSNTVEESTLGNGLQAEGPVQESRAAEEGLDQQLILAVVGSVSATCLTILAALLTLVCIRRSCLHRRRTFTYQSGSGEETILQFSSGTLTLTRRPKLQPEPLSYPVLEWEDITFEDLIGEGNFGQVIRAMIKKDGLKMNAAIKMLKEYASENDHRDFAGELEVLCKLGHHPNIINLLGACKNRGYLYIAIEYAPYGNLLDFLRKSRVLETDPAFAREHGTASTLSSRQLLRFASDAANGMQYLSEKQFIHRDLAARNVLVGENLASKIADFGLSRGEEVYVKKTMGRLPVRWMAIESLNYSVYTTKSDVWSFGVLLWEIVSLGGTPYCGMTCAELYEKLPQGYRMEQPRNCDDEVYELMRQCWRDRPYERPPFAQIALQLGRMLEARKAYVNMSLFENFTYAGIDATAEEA

B1: E3: human anti-Tie1 antibody from Fab phage library; HC SEQ ID NO:114, LC SEQ ID NO:116 (antibody, V domains shown)
VH: EVQLLESGGGLVQPGGSLRLSCAASGFTFSMYGMVWVRQAPGKGLEWVSVISPSGGNTGYADSVKGRFTISRDNSKNTLYLQVNSLRAEDTAVYYCARAPRGYSYGYYYWGQGTLVTVSSASTKGPSVFPLAPSSKSTSGG
VL: DIQMTQSPLSLSASVGDRVTITCRASQGIGHYLAWYQQKPGKVPKLLIYTASTLQSGVPSRFSGSGSGTDFTLTINSLQPEDVATYYCQQFNSYPHTFGQGTRLDIK
modifications: Synthetically generated peptide
time of stimulation after which Tie1 is tyrosine phosphorylated (Tie1 [1]): 10 to 30 min | staining of breast carcinoma (Tie1 [2]; 10 μg/ml): stained also other structures in addition to vessels | staining of hypernephroma tissue (Tie1 [2]; 10 μg/ml): clear staining | staining of kidney (Tie1 [2]; 10 μg/ml): stained kidney tubules in addition to the vessels | staining of lung carcinoma (Tie1 [2]; 10 μg/ml): stained structures other than vessels | staining of melanoma tissue (Tie1 [2]; 10 μg/ml): also stained other surrounding structures | staining of normal lung (large veins) (Tie1 [2]; 10 μg/ml): stained especially clearly the large veins | staining of normal skin (Tie1 [2]; 10 μg/ml): stained blood vessels very faintly | staining of veins and capillaries of mammary tissue (breast) (Tie1 [2]; 10 μg/ml): brightest staining | staining of vessels in normal tissues (tissue specificity) (Tie1 [2]; biotinylated IgG 10 μg/ml): stained vessels in the lung and kidney but not in the skin | staining pattern in mouse xenograft tumor tissue (Tie-1): consistent with staining of mouse endothelial cell Tie-1
